Assay [1] addresses gp120 (Table 2, strain not given) (HIV-1). As to the kind of experiment: Luminex bead assay.
In the next assay the target is HIV-1 Env gp41 (HIV-1). In words: Luminex bead assay.
The target of a further assay is A244 gD- gp120 (HIV-1). In words: SPR.
Assay [2] deals with A244gD+ gp120 (herpes simplex virus; HIV-1). As to the kind of experiment: SPR. (SPR reads the build-up and loss of mass on a sensor chip optically.)
In assay [3] the target is HV00044 (6240 TZ5 140C) (HIV-1). As to the kind of experiment: SPR.
For assay [4], the target named is Influenza HA (Wisconsin) (influenza virus). In words: Luminex assay, antibody 50 µg/ml.
The target of a further assay is HCV E2 (HCV). In words: Luminex assay, antibody 50 µg/ml.
Assay [5] deals with Jo 1 autoantigen. In words: Athena assay, mAb 6.25 ug/ml; positive >50.
Assay [6] concerns the target SSA autoantigen. In words: Athena assay, mAb 6.25 ug/ml; positive >50.
The target of assay [7] is Histone autoantigen. In words: Athena assay, mAb 6.25 ug/ml; positive >50.
In assay [8] the target is RNP autoantigen. As to the kind of experiment: Athena assay, mAb 6.25 ug/ml; positive >50.
Assay [9] deals with Sm autoantigen. As to the kind of experiment: Athena assay, mAb 6.25 ug/ml; positive >50.
Assay [10] addresses centromere B autoantigen. As to the kind of experiment: Athena assay, mAb 6.25 ug/ml; positive >50.
Assay [11] addresses Scl 70 autoantigen. In words: Athena assay, mAb 6.25 ug/ml; positive >50.
In assay [12] the target is SSB autoantigen. As to the kind of experiment: Athena assay, mAb 6.25 ug/ml; positive >50.
Assay [13] has as its target Jo 1 autoantigen. In words: Athena assay, mAb 12.5 ug/ml; positive >50.
Assay [14] addresses SSA autoantigen. In words: Athena assay, mAb 12.5 ug/ml; positive >50.
Assay [15] has as its target Histone autoantigen. As to the kind of experiment: Athena assay, mAb 12.5 ug/ml; positive >50.
For assay [16], the target named is RNP autoantigen. In words: Athena assay, mAb 12.5 ug/ml; positive >50.
Assay [17] deals with Sm autoantigen. In words: Athena assay, mAb 12.5 ug/ml; positive >50.
Assay [18] addresses centromere B autoantigen. In words: Athena assay, mAb 12.5 ug/ml; positive >50.
Assay [19] concerns the target Scl 70 autoantigen. In words: Athena assay, mAb 12.5 ug/ml; positive >50.
Assay [20] addresses SSB autoantigen. As to the kind of experiment: Athena assay, mAb 12.5 ug/ml; positive >50.
Assay [21] deals with Jo 1 autoantigen. In words: Athena assay, mAb 25 ug/ml; positive >50.
Assay [22] concerns the target SSA autoantigen. As to the kind of experiment: Athena assay, mAb 25 ug/ml; positive >50.
The target in assay [23] is Histone autoantigen. In words: Athena assay, mAb 25 ug/ml; positive >50.
Assay [24] deals with RNP autoantigen. In words: Athena assay, mAb 25 ug/ml; positive >50.
In assay [25] the target is Sm autoantigen. As to the kind of experiment: Athena assay, mAb 25 ug/ml; positive >50.
The target in assay [26] is centromere B autoantigen. In words: Athena assay, mAb 25 ug/ml; positive >50.
In assay [27] the target is Scl 70 autoantigen. As to the kind of experiment: Athena assay, mAb 25 ug/ml; positive >50.
The target in assay [28] is SSB autoantigen. In words: Athena assay, mAb 25 ug/ml; positive >50.
Assay [29] addresses Jo 1 autoantigen. As to the kind of experiment: Athena assay, mAb 50 ug/ml; positive >50.
Assay [30] concerns the target SSA autoantigen. In words: Athena assay, mAb 50 ug/ml; positive >50.
For assay [31], the target named is Histone autoantigen. As to the kind of experiment: Athena assay, mAb 50 ug/ml; positive >50.
Assay [32] concerns the target RNP autoantigen. As to the kind of experiment: Athena assay, mAb 50 ug/ml; positive >50.
Assay [33] has as its target Sm autoantigen. In words: Athena assay, mAb 50 ug/ml; positive >50.
In assay [34] the target is centromere B autoantigen. In words: Athena assay, mAb 50 ug/ml; positive >50.
For assay [35], the target named is Scl 70 autoantigen. As to the kind of experiment: Athena assay, mAb 50 ug/ml; positive >50.
Assay [36] deals with SSB autoantigen. In words: Athena assay, mAb 50 ug/ml; positive >50.
For assay [37], the target named is HV00043 (63521 TC21 140C) (HIV-1). As to the kind of experiment: SPR.
Assay [38] addresses Env of HIV-1 Q23.17.N160K (HIV-1). As to the kind of experiment: cell-based or functional assay.
The target of assay [39] is Env of HIV-1 7165.18.N160K (HIV-1). In words: cell-based or functional assay.
Assay [40] has as its target Env of HIV-1 clade B isolate JR-CSF (HIV-1) (UniProt P20871). As to the kind of experiment: cell-based or functional assay.
Assay [41] deals with Env of HIV-1 JRFL.E168K (HIV-1). As to the kind of experiment: cell-based or functional assay.
Assay [42] addresses Env of HIV-1 JRCSF.N160K (HIV-1) (UniProt P20871). As to the kind of experiment: cell-based or functional assay.
Assay [43] concerns the target Env of HIV-1 clade B isolate 7165.18 (HIV-1). In words: cell-based or functional assay.
Assay [44] addresses Env of HIV-1 clade B isolate JRFL (virus) (HIV-1). As to the kind of experiment: cell-based or functional assay.
The target of assay [45] is Env of HIV-1 clade A isolate Q23.17 (HIV-1). As to the kind of experiment: cell-based or functional assay.
Assay [46] has as its target Env of HIV-1 JRFL.N160K.E168K (HIV-1). As to the kind of experiment: cell-based or functional assay.

Here are results for 6 substances from patent US20120321699A1.

Some results are limits rather than exact numbers.

1b12 original (antibody) gave a Reactivity in Luminex Units (Luminex Units) in assay [1] of 5110.
For the substance 2F5 (antibody), the values for the Reactivity in Luminex Units (Luminex Units) (with HIV-1 Env gp41 (HIV-1); in [1]) were 32700 and 9240, respectively.
17b original CCR5 binding site antibody displayed a Reactivity in Luminex Units (Luminex Units) in the assay with HIV-1 Env gp41 (HIV-1) of 1430.
Consider CH05 (antibody), for which the figures for the Kd (in the assay with A244 gD- gp120 (HIV-1); in assay [2]; in [3]) were 340 nM, 26.1 nM and 1450 nM, respectively. In addition, the background substracted RFUs was found to be 5.5 RFU in [4] and 1.3 RFU with HCV E2 (HCV). Also, the Autoreactivity (Athena) was determined as 2.5 in the assay with Jo 1 autoantigen [5]; 7 with SSA autoantigen [6]; 10 with Histone autoantigen [7]; 3 in the assay with RNP autoantigen [8]; 2.5 in the assay with Sm autoantigen [9]; 6 in the assay with centromere B autoantigen [10]. The Autoreactivity (Athena) with Scl 70 autoantigen [11] amounted to 1.5; in the assay with SSB autoantigen [12] it was 6; with Jo 1 autoantigen [13], 2.5; with SSA autoantigen [14], 8; with Histone autoantigen [15], 11; with RNP autoantigen [16], 3.5. In addition, the Autoreactivity (Athena) with Sm autoantigen [17] was 3.5; with centromere B autoantigen [18], 6.5; with Scl 70 autoantigen [19], 1.5; with SSB autoantigen [20], 5; with Jo 1 autoantigen [21], 3.5; in the assay with SSA autoantigen [22], 12.5. For the same substance, the Autoreactivity (Athena) with Histone autoantigen [23] was 14; in the assay with RNP autoantigen [24] it was 4.5; in the assay with Sm autoantigen [25], 3; with centromere B autoantigen [26], 9; in the assay with Scl 70 autoantigen [27], 1.5; with SSB autoantigen [28] it was 5.5. The Autoreactivity (Athena) came out at 9 with Jo 1 autoantigen [29]; 27 in the assay with SSA autoantigen [30]; 21.5 with Histone autoantigen [31]; 9 in the assay with RNP autoantigen [32]; 2.5 with Sm autoantigen [33]; 14.5 in the assay with centromere B autoantigen [34]. For the same substance, the Autoreactivity (Athena) in the assay with Scl 70 autoantigen [35] is 2; with SSB autoantigen [36], 13.
With PG9 (antibody), the values for the dissociation constant (Kd) in assay [37], in assay [2] and in [3] were 0.75 nM, 4.8 nM and 210 nM, respectively. Moreover, the IC50 ug/ml (virus neutralization) in assay [38] was greater than 50 µg/mL; in assay [39], greater than 50 µg/mL; in assay [40], 0.003 µg/mL; in [41] it was 0.008 µg/mL; in assay [42], greater than 50 µg/mL; in assay [43], greater than 50 µg/mL. Moreover, the IC50 ug/ml (virus neutralization) in assay [44] was greater than 50 µg/mL; in assay [45], 0.002 µg/mL; in assay [46], greater than 50 µg/mL. The IC80 ug/ml (virus neutralization) in assay [38] was greater than 50 µg/mL; in assay [39], greater than 50 µg/mL; in assay [40], 0.008 µg/mL; in assay [41] it was 0.055 µg/mL; in assay [42] it was greater than 50 µg/mL; in [43] it was greater than 50 µg/mL. Also, the IC80 ug/ml (virus neutralization) is greater than 50 µg/mL in assay [44], 0.005 µg/mL in assay [45] and greater than 50 µg/mL in assay [46]. Besides, the background substracted RFUs (in assay [4]; with HCV E2 (HCV)) was 0 RFU each time. Besides, the Autoreactivity (Athena) in the assay with Jo 1 autoantigen [5] was 2; in the assay with SSA autoantigen [6], 4; with Histone autoantigen [7], 5; in the assay with RNP autoantigen [8] it was 3; with Sm autoantigen [9], 2; in the assay with centromere B autoantigen [10], 4. The Autoreactivity (Athena) in the assay with Scl 70 autoantigen [11] was 2; in the assay with SSB autoantigen [12] it was 4; with Jo 1 autoantigen [13], 2; with SSA autoantigen [14], 5; with Histone autoantigen [15] it was 6; with RNP autoantigen [16], 2. The Autoreactivity (Athena) in the assay with Sm autoantigen [17] is 3; with centromere B autoantigen [18] it was 4; with Scl 70 autoantigen [19], 2; with SSB autoantigen [20] it was 4; with Jo 1 autoantigen [21], 2; with SSA autoantigen [22], 5. Moreover, the Autoreactivity (Athena) with Histone autoantigen [23] stood at 9; in the assay with RNP autoantigen [24], 2; with Sm autoantigen [25], 3; with centromere B autoantigen [26] it was 5; with Scl 70 autoantigen [27], 1; with SSB autoantigen [28], 6. Also, the Autoreactivity (Athena) came to 1 with Jo 1 autoantigen [29]; 5 with SSA autoantigen [30]; 7 with Histone autoantigen [31]; 3 in the assay with RNP autoantigen [32]; 2 with Sm autoantigen [33]; 5 in the assay with centromere B autoantigen [34]. The Autoreactivity (Athena) with Scl 70 autoantigen [35] was 2; with SSB autoantigen [36], 5.
With PG16 (antibody), the dissociation constant (Kd) was determined as 160 nM in assay [37], 450 nM in assay [2] and 110 nM in [3]. Moreover, the IC50 ug/ml (virus neutralization) in [38] is greater than 50 µg/mL; in assay [39], greater than 50 µg/mL; in assay [40], 0.003 µg/mL; in assay [41], 0.003 µg/mL; in assay [42], greater than 50 µg/mL; in assay [43], 11.8 µg/mL. Besides, the figures for the IC50 ug/ml (virus neutralization) in assay [44], in assay [45] and in assay [46] were greater than 50 µg/mL, 0.001 µg/mL and greater than 50 µg/mL, respectively. Moreover, the IC80 ug/ml (virus neutralization) is greater than 50 µg/mL in assay [38]; greater than 50 µg/mL in assay [39]; 0.012 µg/mL in [40]; 0.015 µg/mL in [41]; greater than 50 µg/mL in assay [42]; greater than 50 µg/mL in assay [43]. In addition, the values for the IC80 ug/ml (virus neutralization) in [44], in assay [45] and in assay [46] were greater than 50 µg/mL, 0.003 µg/mL and greater than 50 µg/mL, respectively. Further, the background substracted RFUs (in assay [4]; with HCV E2 (HCV)) was 0 RFU in each case. Also, the Autoreactivity (Athena) with Jo 1 autoantigen [5] turned out to be 2; in the assay with SSA autoantigen [6], 5; in the assay with Histone autoantigen [7], 8; with RNP autoantigen [8], 2; with Sm autoantigen [9], 2; in the assay with centromere B autoantigen [10] it was 5. The Autoreactivity (Athena) with Scl 70 autoantigen [11] came to 2; with SSB autoantigen [12], 5; with Jo 1 autoantigen [13] it was 1; in the assay with SSA autoantigen [14], 4; in the assay with Histone autoantigen [15] it was 8; in the assay with RNP autoantigen [16] it was 3. Also, the Autoreactivity (Athena) with Sm autoantigen [17] was found to be 2; with centromere B autoantigen [18], 4; with Scl 70 autoantigen [19] it was 1; with SSB autoantigen [20], 4; with Jo 1 autoantigen [29], 0; with SSA autoantigen [30], 4. Moreover, the Autoreactivity (Athena) with Histone autoantigen [31] was determined as 2; with RNP autoantigen [32], 2; with Sm autoantigen [33], 0; in the assay with centromere B autoantigen [34], 3; with Scl 70 autoantigen [35] it was 1; in the assay with SSB autoantigen [36], 2.

As usually defined, the Kd is the free concentration of one partner at which half of the binding sites on the other are occupied at equilibrium, for simple one-to-one binding.
